Measurements: the RNAGym collection of RNA variant scans (doi:10.1073/pnas.2313332121)
Variants at the floor of the assay were thinned out.

B1: TPR 5TU (parent)
chain: GGAUCUUCUCGAUCUAACAAAAAAGACAAAUCUGCCACAAAGCUUGAGAGCAUCUUCGGAUGCAGAGGCGGCAGCCUUCGGUGGCGCGAUAGCGCCAACGUUCUCAACUAUGACACGCAAAACGCGUGCUCCGUUGAAUGGAGUUUAUCAUG

Variants of: B1
Assay: polymerase ribozyme fitness, log enrichment relative to wild type (log ratio); higher = more active; in vitro selection for triplet polymerase activity
Outline: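 Frozen incubation at −7 °C formed the core of a single, triplicate in vitro selection round applied to PCR-built, transcribed mutant libraries of each subunit of a heterodimeric triplet polymerase ribozyme. Extended constructs were gel-excised, captured with streptavidin beads and amplified by RT-PCR, and input and output libraries were Illumina-sequenced with a filter of ≥10 input reads and ≥1 read per output. Fitness is the logarithm of genotype enrichment relative to wild-type enrichment, with inverse-variance-weighted replicate averaging, and the logarithm is base 2.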

Point of comparison: C85G U144A C149U, “polymerase ribozyme fitness (log ratio)” value -3.7. Against it:
- U82A G88A A115U A121U — lower, ≤ -4.2
- G81U G84C C118G — higher, -3.16
- U82A G83A C99U G117A U144A — higher, -2.53
- C79U C96U — higher, -3.43
- G84A C87U C95G A142C — higher, -2.26
- G84A A115U U134G — lower, -4.01
- C85U A106C — higher, -3.33
- C85U A106G — higher, -0.585
- C85U A119G — higher, -1.31
- C85U A119C — higher, -0.984
- C85U A107C C131U — lower, -4.07
- G84A G94A C125A — higher, -1.7
- U82G C105U — higher, 1.06
- G80C C87A A89C A97G U102C A137G A138G U151A — lower, ≤ -4.2
- C79U U102C — lower, ≤ -4.2
- G83C G143U — higher, -2.8
- G80A C87U — higher, -0.519
- C85U A89U — higher, -0.431
- U78G G126U — lower, ≤ -4.2
- C85A G141A U146G — higher, -1.68
- C79G C87G C114G — lower, ≤ -4.2
- C85A C96A U101C G143A — lower, ≤ -4.2
- G84A U102G C125G — within 0.2 log units, -3.78
- C85U A97U — higher, -2.44
- C85U A106U A113C A115U — lower, ≤ -4.2
- G83U A97U C105U G117U G141U — lower, ≤ -4.2
- G84A C87G A110G — lower, ≤ -4.2
- G83C A97U C103G U139C — lower, ≤ -4.2
- G83A A119C A120U C149U — higher, -1.37
- G84A U101G — higher, -0.429
- C79G G124A — within 0.2 log units, -3.82
- C85A C103U C123G A147U — higher, -0.703
- G83C G117U C131U — higher, -0.254
- G80A U82G C123A G152U — lower, -4.06
- G80U G86U U111C — lower, ≤ -4.2
- C79A — lower, -4.12
- C79G — within 0.2 log units, -3.75
- C79U — higher, -1.47
- G80C U82G C87U C99G — higher, 0.273
- U82A C96A A110G A137G — lower, -3.99
- C85A C105U G141C — higher, -3.45
- G83A G136A — higher, -0.0141
- G83C G86A C95A A120C — lower, ≤ -4.2
- G81U U90C C99A A142G — lower, ≤ -4.2
- U82G G92C A106G C116U U135C A150G — lower, ≤ -4.2
- G81C A107U — higher, -3.29
- G81U G84C — higher, -3.22
- C85G C96A A97G U102A C132A U135A — lower, ≤ -4.2
- C85A C116U — higher, -1.08
- G84U U102G A110G — lower, ≤ -4.2
- G80C G81U — higher, 0.0733
- C85G C116U U144G — higher, -0.537
- C85U A97C G124U — higher, 0.338
- G81C G112A A137U U148A — lower, ≤ -4.2
- C79U G83A A107G A110G U144G — lower, ≤ -4.2
- C85A C95U — higher, -1.98
- G80A C99G G124A — higher, -0.389
- U82A C105U — higher, 0.242
- C85G A98U — higher, -2.9
- C85G A98G — higher, -0.929
- G83A G143A — higher, -1.28
- C85G C105U — higher, -1.58
- G83U C116U A122C — higher, -2.43
- C85G U145C — higher, -2.42
- C85G U145A — higher, -1.65
- C79A G88A G133U G140A — lower, ≤ -4.2
- G83C C87G C114U A120U A138G — lower, ≤ -4.2
- G81C A137U U139G U144A — higher, -3.35
- C85G C99A — higher, -3.3
- C85G C99U — within 0.2 log units, -3.51
- G83A A121G U145G U148G — lower, ≤ -4.2
- G83C G140U — lower, -4.01
- C79U C87A C96U A98C G141C — lower, ≤ -4.2
- G84C U101A A122G G126U — higher, -3.41
- C79U G141A — higher, -2.05
- G83U U104C — higher, -0.855
- G84U C116U — higher, -2.7
- G84U C116G — higher, -1.58
- G81C C85U A97G U109G — higher, -0.959
- U82C A89C C96U U101G A115C — higher, -1.01
- U78G G117C — lower, ≤ -4.2
- G83A G92U G133C A142G — within 0.2 log units, -3.79
- C79A U90A G133U G143C — lower, ≤ -4.2
- G84U A89U A98U G126U — higher, -0.825
- G84A C93G C125A G133U — lower, ≤ -4.2
- G83C U101A — higher, -1.07
- C85G A150G — higher, -2.67
- C85G A150C — lower, -4.1
- G83A G88C A91G C95U A137G — lower, ≤ -4.2
- G84A G94C — higher, -1.72
- G83C G124A A137G — higher, -1.97
- C79U G80C C85U C93U — lower, ≤ -4.2
- G84U C99U — higher, -1
- G80A G83C — higher, -3.01
- U82G C93U G141A — higher, -0.284
- C85A C96U — higher, -2.63
- C85A C96G — higher, -2.42
- C85G A107G — lower, ≤ -4.2
- C79U G94C — within 0.2 log units, -3.64
- G80A A113C U145A — within 0.2 log units, -3.89
- U82C A89U C96G G100A A106U C114U A137C — lower, ≤ -4.2
- G84U G126A G136U — within 0.2 log units, -3.56
- U82G A98G — higher, 0.302
- U82G C85A A89G G133A A142C — lower, ≤ -4.2
- C85A U104A A115G — higher, -3.42
- C85A A97U — higher, -2.65
- G81A G84A — higher, -0.338
- G83C A121G — higher, -0.25
- G81C C93G — within 0.2 log units, -3.69
- G81C C93A — higher, -2.57
- G80U G94A C96A U101A C149A — lower, ≤ -4.2
- C85G A98U C129A U134C — lower, -4.18
- G83C C95U G136A C149U — higher, -2.18
- U82G A115U — higher, -1.61
- G84A A120U C123A G126U — higher, 0.597
- G84A G112C — higher, -2.71
- G83C C99G — within 0.2 log units, -3.88
- C79G C85A C114U — lower, ≤ -4.2
- G81A C95A A147C — higher, 0.16
- G84A C87A — lower, ≤ -4.2
- U82G A106U C118U — higher, -0.65
- C85G U102A G133U A137U G141C — within 0.2 log units, -3.8
- G81C A89C A98U A107U U144C — lower, ≤ -4.2
- G81C C87U G100C G117A G126C — lower, ≤ -4.2
- G84A U109G C114G U135G — lower, ≤ -4.2
- G81C G88A A107C C125A C131U — lower, ≤ -4.2
- G83U C85A — within 0.2 log units, -3.55
- G81A A91U U101G C103A — lower, ≤ -4.2
- G84U G141C — higher, -2.49
- C85G G117A — higher, -2.7
- C85G G112C A138U C149A — lower, ≤ -4.2
- G80A G94C C125A G143A — lower, ≤ -4.2
- C85A C103A — lower, -4.12
- C85A C103G — higher, -3.36
- G83A G141A — higher, 0.227
- C79A C93U A119G G133C — lower, ≤ -4.2
- C79A U144A A147C — lower, ≤ -4.2
- G83C A89C G126A — higher, -0.834
- C85A C105U A150G — higher, -2.08
- G80C C87G C103G G143C — lower, ≤ -4.2
- U82G G92C A113U — higher, -3
- G84A U127A — within 0.2 log units, -3.74
- G81U C85G — higher, -1.76
- C85A G133C U134G U145G — lower, ≤ -4.2
- G80C A113G U134A — lower, ≤ -4.2
- G81U C125A — higher, -0.8
- G84A A89G A98G C114U — higher, -2.55
- C85A C103A C125A — higher, -3.33
- C85U A107U A138G A142G — lower, ≤ -4.2
- G84U U134A U144C A150U — lower, ≤ -4.2
- C85U A115C — higher, -0.617
- C85U A91C — lower, ≤ -4.2
- G84C C118A C125U G136U — lower, -4.09
- G84U G117U C123A — higher, -1.62
- G83U C118A — higher, -1.04
- G84A U101G A122U U146C — higher, -0.376
- C85G C123U G141A — higher, -0.441
- G81A C96A A98C — higher, -0.656
- G83A G117C — higher, -0.0387
- C85A U135G — lower, ≤ -4.2
- G83U U135A — higher, -1.05
- G83A C116U — higher, -0.551
- C85G C103A — lower, ≤ -4.2
- C85A G117U — higher, -0.587
- G83A G92U A119G A122C C149G — lower, -4.14
- G80A C85A A138G — within 0.2 log units, -3.67
